The record followed here is PMC6356862, “A polyextremophilic alcohol dehydrogenase from the Atlantis II Deep Red Sea brine pool” (FEBS Open Bio, 2018).

In series [1] the target is Alcohol dehydrogenase/A1a (ADH/A1a) from an uncultured MSBL1 archaeon of the Atlantis II Deep Red Sea brine pool (uncultured MSBL1 (Mediterranean Sea Brine Lake 1) archaeon). Kind of series: native gel or EMSA; Coomassie-stained native PAGE of purified ADH/A1a (Fig. S4); conditions not given. On the technique in general: In EMSA bound probe runs differently from free probe, usually more slowly.

Substrate in series [2]: CCO
Description: purified protein. The following applies: standard oxidation conditions: 3 M KCl, 50 mM glycine/NaOH pH 10.0, 60 °C, 10 mM NAD(P)+, 0.4 mM zinc sulfate, cofactor (NAD+ or NADP+) not specified.

Substrate in series [3]: CC(C)=CCC/C(C)=C/CO
Description: purified protein. Format: biochemical, candidate division MSBL1 archaeon SCGC-AAA261F19. The settings on record: standard oxidation conditions: 3 M KCl, 50 mM glycine/NaOH pH 10.0, 60 °C, 10 mM NAD(P)+, 0.4 mM zinc sulfate, cofactor (NAD+ or NADP+) not specified.

Substrate in series [4]: OC/C=C/c1ccccc1
Kind of series: purified protein. Format: biochemical, candidate division MSBL1 archaeon SCGC-AAA261F19. The following applies: standard oxidation conditions: 3 M KCl, 50 mM glycine/NaOH pH 10.0, 60 °C, 10 mM NAD(P)+, 0.4 mM zinc sulfate, cofactor (NAD+ or NADP+) not specified.

As for “Alcohol dehydrogenase/A1a (ADH/A1a) from an uncultured MSBL1 archaeon of the Atlantis II Deep Red Sea brine pool (enzyme)”, the stoichiometry N – broadly, a count of units in the complex or per binding partner – in series [1] is 4.

B1: ADH/A1a (candidate division MSBL1 archaeon SCGC-AAA261F19) (protein)
chain: MKAMQLKEPKPVEQAPLEMVELKEPRPGPKEVKIDVQACGVCHTDLHTVEGELSLPKLPIVPGHEVVGVVEESGDEAEHFEVGDRVGVTWLYSSCGECKFCRRGQENLCEDPMFTGLHADGGYEESMVAKEDFVYPIPKNISDEDAAPLLCAGVIGYRSLRLSEVKPGQRLGLFGFGASAHIVIQLATDMGCEVYVFTRSEEHRRLARELGSAWEGSAKDDPPHRIDSGITFAPVGWIVKEALRDLEKGGTLAINAIHMTPIPELDYDLIYHEKKLRSVANVTREDAEGFLKIAGDIPVQTEVETFPLEEANRALRLLKDSKINGAGVLKVS
notes: N-terminal 20-residue nonsense region of annotated adh/a1 deleted; N-terminal His6-tag; codon-optimized, expressed in Haloferax volcanii H1895 (pTA963); zinc added
On to B1, for which, in the series “purified protein [2]”, the Km (commonly the substrate concentration at which the rate is half of its maximum) came out at 94430 ± 8400 µM; the Vmax – broadly, the rate approached at saturating substrate – was determined as 0.142 µmol/min/mg; the kcat (commonly the number of substrate molecules converted per active site and unit of time at saturation) was 0.089 s⁻¹; the kcat/Km (as a rule, the second-order rate constant that governs catalysis at low substrate concentration) stood at 0.94 M⁻¹ s⁻¹. In addition, in the series “purified protein [3]”, the Km came to 270 ± 40 µM, the Vmax turned out to be 0.131 µmol/min/mg, the catalytic constant (kcat) is 0.082 ± 0.003 s⁻¹ and the kcat/Km stood at 290 ± 18 M⁻¹ s⁻¹. In “purified protein [4]”, the Km was determined as 470 ± 90 µM, the Vmax was 0.237 µmol/min/mg, the kcat was 0.144 ± 0.009 s⁻¹ and the kcat/Km was 310 ± 10 M⁻¹ s⁻¹.
